Results on 21 molecules are retold here after patent publication US20220195015A1 (published 2022).

A value given as a limit tells only on which side of the number the result lay.

Assay [1] has as its target SARS-CoV-2 receptor binding domain (RBD), wild type (SARS-CoV-2, UniProt P0DTC2 319-539). In words: ELISA, RBD coated on the plate, antibody titrated. In general terms: ELISA stands for enzyme-linked immunosorbent assay.
The target of assay [2] is SARS-CoV-2 spike protein on HIV-1 pseudotyped particles (SARS-CoV-2, UniProt P0DTC2 14-1254). Kind of assay: cell-based or functional assay.
The target in assay [3] is SARS-CoV-2 RBD (wild type) (SARS-CoV-2, UniProt P0DTC2 319-539). In words: ELISA on coated RBD.

B1: C582 (antibody, V domains shown)
VH: QVQLVESGGGVVQPGRSLRLSCVASGFTFSYFDMHWVRQAPGKGLEWVALISHDGSTTFYGDSARGRFTISRDNSRNTLDLQMNSLRPEDTAVYFCAKPVDAAMFDFWGQGTLVTVS
VL: SYELTQPPSVSVAPGKTARITCGGNNIGSKSVHWYQQRPGQAPVLVIYYDSDRPSGIPERFSGSNSGNTATLTISRVEAGDEADFYCQVWDRSTNHLVVFGGGTQLTVL
As to B1, the concentration for a half-maximal effect (EC50) in assay [1] was found to be 0.00843 µg/mL.

B2: C098 (antibody, V domains shown)
VH: EVQLVESGGGLIQPGGSLRLSCAASGFTVSSNYMSWVRQAPGKGLEWVSVIYSGGSTYYADSVKGRFTISRDNSKNTLYLQMNSLRAEDTAVYYCARDLYSSGGTDIWGQGTMVTVSS
VL: not shown
As for B2, in assay [2], the “Neutralization IC50” value came to 0.479 µg/mL and the “Neutralization IC90” value was 4.25 µg/mL.

B3: C099 (antibody, V domains shown)
VH: EVQLVESGGGLIQPGGSLRLSCAASGITVSSNYMSWVRQAPGKGLEWVSVMYAGGSTFYADSVKGRFTISRDDSKNTLFLQMNSLRAEDTAIYYCARDLYSSGGTDIWGQGTMVTVSS
VL: EIVLTQSPGTLSLSPGERATLSCRASQSIGSSYLAWYQQKPGLAPRLLIYGASRRATGIPDKFSGSGSGADFTLTISRLEPEDFAVYYCQQYGSSPGTFGQGTKVEIK
Take B3: in assay [2], the “Neutralization IC50” value worked out at 0.0272 µg/mL and the “Neutralization IC90” value worked out at 0.0861 µg/mL.

B4: C098 (antibody, V domains shown)
VH: EVQLVESGGGLIQPGGSLRLSCAASGFTVSSNYMSWVRQAPGKGLEWVSVIYSGGSTYYADSVKGRFTISRDNSKNTLYLQMNSLRAEDTAVYYCARDLYSSGGTDIWGQGTMVTVSS
VL: not shown
Regarding B4, it took 0.0077 µg/mL to reach a half-maximal effect in assay [3] (EC50).

B5: C099 (antibody, V domains shown)
VH: EVQLVESGGGLIQPGGSLRLSCAASGITVSSNYMSWVRQAPGKGLEWVSVMYAGGSTFYADSVKGRFTISRDDSKNTLFLQMNSLRAEDTAIYYCARDLYSSGGTDIWGQGTMVTVSS
VL: EIVLTQSPGTLSLSPGERATLSCRASQSIGSSYLAWYQQKPGLAPRLLIYGASRRATGIPDKFSGSGSGADFTLTISRLEPEDFAVYYCQQYGSSPGTFGQGTKVEIK
The molecule B5 gave a 50% effective concentration (EC50) in assay [3] of 0.00245 µg/mL.

B6: C097 (antibody, V domains shown)
VH: QVQLQESGPGLVKPSQTLSLTCTVSGGSISSGPYYWSWIRQHPGKGLEWIGYIYYSGSTYYNPSLKSRVTISVDTSKKQFSLNLNSVTAADTAVYYCARVWQYYDSTGSFDYWGQGTLVTVSS
VL: DIVMTQSPLSLPVTPGEPASISCRSSRGLLHSNGYNYLDWYLQKPGQSPQLLIYLGSNRASGVPDRFSGSGSVTDFTLNISRVEAEDVGVYYCMQALQTPFTFGPGTKVDIK
For B6, in assay [2], the “Neutralization IC50” value is 0.0096 µg/mL and the “Neutralization IC90” value was 0.0311 µg/mL.

B7: C097 (antibody, V domains shown)
VH: QVQLQESGPGLVKPSQTLSLTCTVSGGSISSGPYYWSWIRQHPGKGLEWIGYIYYSGSTYYNPSLKSRVTISVDTSKKQFSLNLNSVTAADTAVYYCARVWQYYDSTGSFDYWGQGTLVTVSS
VL: DIVMTQSPLSLPVTPGEPASISCRSSRGLLHSNGYNYLDWYLQKPGQSPQLLIYLGSNRASGVPDRFSGSGSVTDFTLNISRVEAEDVGVYYCMQALQTPFTFGPGTKVDIK
As for B7, in assay [3], the EC50 amounted to 0.00345 µg/mL.

B8: C043 (antibody, V domains shown)
VH: QLVQSGPEVKKPGTSVKVSCKASGFTFYNSAVQWVRQARGQRLEWVGWIVVGSGNTDYAQKFQERVTMTRDLSTNTAYMEVNSLRSEDTAVYYCAAPYCSGGTCLDGFDIWGQGTMVTVSS
VL: EIVLTQSPGTLSLSPGERGTLSCRASQSVRSNYLAWYKQRPGQAPRLLVYGASSRATGIPDRFSGSGSGTDFTLTISRLEPEDFAVYYCQQYGSSPWTFGQGTKVEIK
For B8, in assay [2], the “Neutralization IC50” value is 0.0106 µg/mL and the “Neutralization IC90” value amounted to 0.0744 µg/mL.

B9: C043 (antibody, V domains shown)
VH: QLVQSGPEVKKPGTSVKVSCKASGFTFYNSAVQWVRQARGQRLEWVGWIVVGSGNTDYAQKFQERVTMTRDLSTNTAYMEVNSLRSEDTAVYYCAAPYCSGGTCLDGFDIWGQGTMVTVSS
VL: EIVLTQSPGTLSLSPGERGTLSCRASQSVRSNYLAWYKQRPGQAPRLLVYGASSRATGIPDRFSGSGSGTDFTLTISRLEPEDFAVYYCQQYGSSPWTFGQGTKVEIK
For the molecule B9, the 50% effective concentration (EC50) in assay [3] worked out at 0.0121 µg/mL.

B10: C044 (antibody, V domains shown)
VH: EVQLVESGGGLVQPGGSLRLSCAASGFTFSSYSMNWVRQAPGKGLEWVSYISSSSSTIYYADSVKGRFTISRDNAKNSLYLQMNSLRDEDTAVYYCAREAHDGALTDYGDYLNWFDPWGQGTLVTVSS
VL: SYELTQPPSVSVAPGKTARITCGGNNIGSKSVHWYQQKPGQAPVLVIYYDSDRPSGIPERFSGSNSGNTATLTISRVEAGDEADYYCQVWDSSSDHLYWVFGGGTKLTVL
For the molecule B10, in assay [2], the “Neutralization IC50” value was > 10 µg/mL and the “Neutralization IC90” value is > 10 µg/mL.

B11: C044 (antibody, V domains shown)
VH: EVQLVESGGGLVQPGGSLRLSCAASGFTFSSYSMNWVRQAPGKGLEWVSYISSSSSTIYYADSVKGRFTISRDNAKNSLYLQMNSLRDEDTAVYYCAREAHDGALTDYGDYLNWFDPWGQGTLVTVSS
VL: SYELTQPPSVSVAPGKTARITCGGNNIGSKSVHWYQQKPGQAPVLVIYYDSDRPSGIPERFSGSNSGNTATLTISRVEAGDEADYYCQVWDSSSDHLYWVFGGGTKLTVL
In assay [3], B11 displayed an EC50 of 1.82 µg/mL.

B12: C045 (antibody, V domains shown)
VH: EVQLVESGGGLVQPGGSLRLSCAASGFTFSTYSMNWVRQAPGKGLEWVSYISSSSSTIHYADSVKGRFTISRDNAKNSLYLQMNSLRDEDTAVYYCAREAHDGALTDYGDYLNWFDPWGQGTLVTVSS
VL: SYELTQPPSVSVAPGKTARITCGGTNIGSKNVHWYQQKPGQAPVLVIYYDNDRPSGIPERFSGSNSGNTATLTISRVEAGDEADYYCQVWDTTSDHFYWVFGGGTKLTVL
Consider B12, for which, in assay [2], the “Neutralization IC50” value was > 10 µg/mL and the “Neutralization IC90” value was > 10 µg/mL.

B13: C045 (antibody, V domains shown)
VH: EVQLVESGGGLVQPGGSLRLSCAASGFTFSTYSMNWVRQAPGKGLEWVSYISSSSSTIHYADSVKGRFTISRDNAKNSLYLQMNSLRDEDTAVYYCAREAHDGALTDYGDYLNWFDPWGQGTLVTVSS
VL: SYELTQPPSVSVAPGKTARITCGGTNIGSKNVHWYQQKPGQAPVLVIYYDNDRPSGIPERFSGSNSGNTATLTISRVEAGDEADYYCQVWDTTSDHFYWVFGGGTKLTVL
B13 had a concentration for a half-maximal effect (EC50) in assay [3] of 0.007 µg/mL.

B14: C584 (antibody, V domains shown)
VH: EVQLVESGGGLVQPGGSLRLSCAASGFTFSTYDMHWVRQATGKGLEWVSAIGTAGDKYYPGSVKGRFTISRENAKNSLYLQMNSLRAGDTAVYYCVRAGYSSGWPLYWYFDLWGRGTLVTVSS
VL: DIQMTQSPSSLSASVGDRVTITCRASQSISSYLNWYQQKPGKAPKFLIYAASSLQSGVPSRFSGSGSGTDFTLTISNLQPEDFATYYCQQSYRTPPEFTFGPGTKVDIK
Take B14: the response in assay [1] was half-maximal at 0.0105 µg/mL (EC50).

B15: C049 (antibody, V domains shown)
VH: QVQLQESGPGLVKPSETLSLTCTVSGGSVSSGTFYWSWIRQPPGKGLEWIGYIHYSGSTNYNPSLKSRVTISVDTSKNQFSLRLSSVTAADTAVYYCARESFYYDRSGYYGSDAFDIWGQGTMVTVSS
VL: DIQMTQSPSTLSSSVGDRVTITCRASQNISRWLAWYQQKPGKAPKLLIYKASTLESGVPSRFSGSGSGTKFTLTISSLQPDDFATYYCQQYNSYLYTFGQGTKLEIK
Take B15: in assay [2], the “Neutralization IC50” value turned out to be 0.0181 µg/mL and the “Neutralization IC90” value was 0.129 µg/mL.

B16: C585 (antibody, V domains shown)
VH: QVQLQESGPGLVKPSETLSLTCTVSGDSISSYFWSWIRQPPGRGLEWIGYIHDSVNTNYNPSLKSRVTISVDTSKSQFSLRLSSVTAADTAVYYCARCAWLRGSFDYWGQGTLVTVSS
VL: NFMLTQPHSVSESPGKTVTISCTGSSGSIASNYVQWYQQRPGSAPTTVIYEDNQRPSGVPDRFSGSIDSSSNSASLTISGLKTEDEADYYCQSYDFSSHYVFGTGTKVTVL
On to B16, for which the EC50 in assay [1] stood at 0.011 µg/mL.

B17: C048 (antibody, V domains shown)
VH: VQLQESGPGLVKPSETLSLTCAVSGGSVSSGNYYWNWIRQPPGKGLEWIGYIYYSGSTNYNPSLKSRVTISVDTSKNQFSLKLNSVTAADTAVYHCARETYYYDSSGYYISDAFDIWGQGTMVTVSS
VL: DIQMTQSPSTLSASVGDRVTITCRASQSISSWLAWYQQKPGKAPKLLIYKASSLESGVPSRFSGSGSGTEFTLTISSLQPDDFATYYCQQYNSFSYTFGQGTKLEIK
As to B17, in assay [2], the “Neutralization IC50” value worked out at 0.0622 µg/mL and the “Neutralization IC90” value was found to be 0.523 µg/mL.

B18: C095 (antibody, V domains shown)
VH: VQLVEAGGGVVQPGRSLRLSCAASGLAFSIYGMHWVRQAPGKGLEWVAIVAQDGSKKYYADSVKGRFTISRDNSKNTLYLEMNSLRTEDTAVYYCVKEGRPSDTVVVVAFDYWGQGSLVTVSS
VL: DIQLTQSPSSLSASVGDRVTITCRASQSISNYLNWYQQKPGKAPKVIIYAASSLQSGVPSRFSGSGSGTDFTLTISSLQPEDFATYYCQQSHSIPRTFGQGTKVEIK
Take B18: in assay [2], the “Neutralization IC50” value was 0.0113 µg/mL and the “Neutralization IC90” value turned out to be 0.0526 µg/mL.

B19: C586 (antibody, V domains shown)
VH: EVQLVESGGGLIQPGGSLRLSCTASGLIVSSNYMSWIRQAPGKGLEWVSLIYSGGSTFYADSVKGRFTISRDNSKNTLFLHMNSLRAEDTAVYYCARHPYGTDVWGQGTTVTVSS
VL: DIQMTQSPSSLSASVGDRVTITCQASQDIVKYLNWYQQKSGKAPKLLIHDASNLETGVTSRFSGSGSGTHFTFTISSLQPEDLATYYCQQYDNLPITFGQGTRLEIK
B19 registered an EC50 in assay [1] of 0.00542 µg/mL.

B20: C583 (antibody, V domains shown)
VH: EVQLVESGGGLIQPGGSLRLSCAASILTVSRNYMSWVRQAPGKGLEWVSSIYSGGTTYYADSVKGRFTISRDDSKNTLYLQMNSLRAEDTAVYYCARPVVGGRAGMDVWGQGTTVTVSS
VL: DIQMTQSPSSLSASVGDRVTITCQASQDINKYLNWYQQKPGKAPKLLIYDASNLETGVPSRFSGSGSGTDFTFTISSLQPEDIGTFYCLHNDNPPLTFGGGTKVEIK
In turn, B20 registered a concentration for a half-maximal effect (EC50) in assay [1] of 0.00442 µg/mL.

B21: C587 (antibody, V domains shown)
VH: QVQLVQSGAEVKKSGSSVKVSCKASGGSFSSYAISWVRQAPGQGLEWMGGIIPIFGTAKYAQKFQGRVTITADESTSTAYMELSSLRSEDTAVYYCASRWEQLNGGSWHYFDYWGQGTLVTVSS
VL: QSALTQPASVSGSPGQSITISCTGTRSDVGRNNLVSWYQHHPGKAPKVMIYEGSKRPSGVSTRFSGSKSGNTASLTISGLQAEDEADYYCCSYAGSSTFEGVFGGGTKLTVL
Molecule B21 had an EC50 in assay [1] of 0.00439 µg/mL.

The term EC50 denotes the concentration needed to bring the measured effect to its halfway point. A low value points to greater potency.
